The chains are these.
B1: CCDC6 (parent)
chain: FTPPTSLTRAGMSYYNSPGLHVQH
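Further: lentivirally expressed fusions sorted by FACS into six bins by GFP to DsRed ratio, PSI derived from sequencing read proportions per bin multiplied by bin number.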

The variants in the series derive from B1. In words: protein stability index of a GFP-peptide fusion (GPS, HEK-293T) (PSI 1-6); higher = more stable. The note with it: c terminus: a fixed tail appended.
Consider FTPPTSLTRAGMSYYNSPGLPVQH [H21P], for which the protein stability index worked out at 1.76. As to FTPPTSLTRAGMSYYNSPGLFVQH [H21F], the protein stability index was 1.61. With FTPPTSLTRAGMSYYNSPGLVVQH [H21V], the protein stability index is 2.58. The result for FTHPTSLTRAGMSYYNSPGLHVQH [P3H] reads 1.79; that for FTWPTSLTRAGMSYYNSPGLHVQH [P3W], 1.21; that for FTTPTSLTRAGMSYYNSPGLHVQH [P3T], 2.35. Regarding FTSPTSLTRAGMSYYNSPGLHVQH [P3S], the protein stability index was 2.1. Take FTLPTSLTRAGMSYYNSPGLHVQH [P3L]: the protein stability index came to 1.98. With FTVPTSLTRAGMSYYNSPGLHVQH [P3V], the protein stability index was 2.08. The result for FTFPTSLTRAGMSYYNSPGLHVQH [P3F] reads 1.95; that for FTPPTSLTRAGMSYYNSPGAHVQH [L20A], 2.14. FTPPTSLTRAGMSYYNSPGTHVQH [L20T]: the protein stability index stood at 2.35. For the variant FTPPTSLTRAGMSYYNSPGQHVQH [L20Q], the protein stability index stood at 2.69. With FTPPTSLTRAGMSYYNSPGPHVQH [L20P], the protein stability index was determined as 1.67. In the case of FTPPTSLTRAGMSYYNSPGIHVQH [L20I], the protein stability index was 2.36. The result for FTPPTSLTRAGMSYYNSPGWHVQH [L20W] reads 2.79; that for FTPPTSLTRAGMSYYNSPGVHVQH [L20V], 2.02. As for FTPPTSLTRFGMSYYNSPGLHVQH [A10F], the protein stability index amounted to 2.33. Consider FTPPTSLTRDGMSYYNSPGLHVQH [A10D], for which the protein stability index was determined as 1.37. The result for FTPPTSLTRPGMSYYNSPGLHVQH [A10P] reads 1.91; that for FTPPTSLTRRGMSYYNSPGLHVQH [A10R], 2.22. In the case of FTPPTSLTRSGMSYYNSPGLHVQH [A10S], the protein stability index came out at 2.06. The result for FTPPTSLTRMGMSYYNSPGLHVQH [A10M] reads 1.9. Take FTPPTSLTRYGMSYYNSPGLHVQH [A10Y]: the protein stability index is 2.72. The result for FTPPTSLTRIGMSYYNSPGLHVQH [A10I] reads 1.75; that for FTPPTSLTRAGMSYRNSPGLHVQH [Y15R], 2.33; that for FTPPTSLTRAGMSYKNSPGLHVQH [Y15K], 2.33. The result for FTPPTSLTRAGMSYHNSPGLHVQH [Y15H] reads 2.11; that for FTPPTSLTRAGMSYTNSPGLHVQH [Y15T], 2.51; that for FTPPTSLTRAGMSYLNSPGLHVQH [Y15L], 2.22. As for DTPPTSLTRAGMSYYNSPGLHVQH [F1D], the protein stability index turned out to be 3.56.

Regarding ETPPTSLTRAGMSYYNSPGLHVQH [F1E], the protein stability index came out at 2.85. Turning to GTPPTSLTRAGMSYYNSPGLHVQH [F1G], the protein stability index is 2.54.

Take NTPPTSLTRAGMSYYNSPGLHVQH [F1N]: the protein stability index is 2.88. With ITPPTSLTRAGMSYYNSPGLHVQH [F1I], the protein stability index was determined as 2.46. For WTPPTSLTRAGMSYYNSPGLHVQH [F1W], the protein stability index is 2.14. Turning to TTPPTSLTRAGMSYYNSPGLHVQH [F1T], the protein stability index came out at 2.94. With FTPPTSLTRAGMSYYNSPGLHSQH [V22S], the protein stability index was 1.74. For FTPPTSLTRAGMSYYNSPGLHIQH [V22I], the protein stability index amounted to 2.14. As for FTPPTSLTRAGMSYYNSPGLHYQH [V22Y], the protein stability index amounted to 2.32. The result for FTPPTSLTRAGMSYYNSPGLHTQH [V22T] reads 1.97.

On to FTPPTSLTRAGMSYYNSPGLHEQH [V22E], for which the protein stability index was 2.18.

Turning to FTPPTSLTRAGMSYYNSPGLHHQH [V22H], the protein stability index was 1.87. With FTPPTVLTRAGMSYYNSPGLHVQH [S6V], the protein stability index worked out at 2.1.

With FTPPTGLTRAGMSYYNSPGLHVQH [S6G], the protein stability index came out at 2.

Regarding FTPPTWLTRAGMSYYNSPGLHVQH [S6W], the protein stability index was 2.27. The result for FTPPTALTRAGMSYYNSPGLHVQH [S6A] reads 1.51. For FTPPTFLTRAGMSYYNSPGLHVQH [S6F], the protein stability index was determined as 2.98. Consider FTPPTELTRAGMSYYNSPGLHVQH [S6E], for which the protein stability index was 1.91. Turning to FTPPTSLTRAGMSYYCSPGLHVQH [N16C], the protein stability index turned out to be 2.06.

Turning to FTPPTSLTRAGMSYYYSPGLHVQH [N16Y], the protein stability index was 1.77. Regarding FTPPTSLTRAGMSYYHSPGLHVQH [N16H], the protein stability index turned out to be 2.12. Regarding FTPPTSLTRAGMSYYKSPGLHVQH [N16K], the protein stability index worked out at 1.95. The result for FTPPTSLTRAGMSYYASPGLHVQH [N16A] reads 2.42.

For the variant FTPPTSLTRAGESYYNSPGLHVQH [M12E], the protein stability index came to 2.29.

Take FTPPTSLTRAGYSYYNSPGLHVQH [M12Y]: the protein stability index amounted to 1.71.

In the case of FTPPTSLTRAGFSYYNSPGLHVQH [M12F], the protein stability index stood at 1.58. Consider FTPPTSLTRAGSSYYNSPGLHVQH [M12S], for which the protein stability index was determined as 2. For the variant FTPPTSLTRAGQSYYNSPGLHVQH [M12Q], the protein stability index turned out to be 1.73.

In the case of FTPPTSLTRAGMSYYNKPGLHVQH [S17K], the protein stability index was found to be 2.04. Regarding FTPPTSLTRAGMSYYNTPGLHVQH [S17T], the protein stability index stood at 1.64.

FTPPTSLTRAGMSYYNQPGLHVQH [S17Q]: the protein stability index was 1.57.

As for FTPPTSLTRAGMSYYNAPGLHVQH [S17A], the protein stability index was 2.94. For the variant FTPPTSLTRAGMSYYNVPGLHVQH [S17V], the protein stability index is 1.86.

FTPPTSLTRAGMSYYNDPGLHVQH [S17D]: the protein stability index amounted to 2.09. As for FTPPTSLFRAGMSYYNSPGLHVQH [T8F], the protein stability index turned out to be 2.56.

As to FTPPTSLMRAGMSYYNSPGLHVQH [T8M], the protein stability index amounted to 1.92.

Consider FTPPTSLGRAGMSYYNSPGLHVQH [T8G], for which the protein stability index was determined as 2.06. As to FTPPTSLKRAGMSYYNSPGLHVQH [T8K], the protein stability index is 1.46. Turning to FTPPTSLDRAGMSYYNSPGLHVQH [T8D], the protein stability index worked out at 1.82. The result for FTPPTSLWRAGMSYYNSPGLHVQH [T8W] reads 1.78; that for FQPPTSLTRAGMSYYNSPGLHVQH [T2Q], 1.91; that for FIPPTSLTRAGMSYYNSPGLHVQH [T2I], 2.6.

Turning to FFPPTSLTRAGMSYYNSPGLHVQH [T2F], the protein stability index amounted to 1.48. The result for FNPPTSLTRAGMSYYNSPGLHVQH [T2N] reads 1.55.

As for FRPPTSLTRAGMSYYNSPGLHVQH [T2R], the protein stability index is 2.17.

With FGPPTSLTRAGMSYYNSPGLHVQH [T2G], the protein stability index was 2.47. Take FTPVTSLTRAGMSYYNSPGLHVQH [P4V]: the protein stability index worked out at 2.5.

As to FTPRTSLTRAGMSYYNSPGLHVQH [P4R], the protein stability index turned out to be 1.83. As for FTPPSSLTRAGMSYYNSPGLHVQH [T5S], the protein stability index worked out at 1.84. Consider FTPPRSLTRAGMSYYNSPGLHVQH [T5R], for which the protein stability index was found to be 1.96.

With FTPPFSLTRAGMSYYNSPGLHVQH [T5F], the protein stability index stood at 1.69. The result for FTPPTSLTRAGMSYYNSPGLHVTH [Q23T] reads 1.73; that for FTPPTSLTRAGMSYYNSPHLHVQH [G19H], 1.96. Regarding FTPPTSLTRAGMSYYNSPWLHVQH [G19W], the protein stability index is 1.8.

FTPPTSLTRAGMSYYNSPMLHVQH [G19M]: the protein stability index amounted to 2.08. The result for FTPPTSLTRAGMSYYNSPALHVQH [G19A] reads 1.98; that for FTPPTSLTRAGMSYYNSPSLHVQH [G19S], 1.73. Consider FTPPTSLTRAGMSYYNSPDLHVQH [G19D], for which the protein stability index is 2.22.

In the case of FTPPTSLTRAGMSYYNSPNLHVQH [G19N], the protein stability index is 2.09. Take FTPPTSLTRAGMSYYNSPKLHVQH [G19K]: the protein stability index is 2.27. Regarding FTPPTSLTRAGMSYYNSPCLHVQH [G19C], the protein stability index came to 1.98. Consider FTPPTSLTRAGMSYYNSPFLHVQH [G19F], for which the protein stability index worked out at 2.45. For the variant FTPPTSLTRAGMSYYNSPELHVQH [G19E], the protein stability index came out at 2.1.

The record behind these values is the supplement of paper PMC10567573.
